“Also recorded” adds a separate entry of the source.
T1: GM-CSF (Mus musculus, UniProt P01587)
T1 construct: purchased Peprotech
T1 sequence (P01587 18-141): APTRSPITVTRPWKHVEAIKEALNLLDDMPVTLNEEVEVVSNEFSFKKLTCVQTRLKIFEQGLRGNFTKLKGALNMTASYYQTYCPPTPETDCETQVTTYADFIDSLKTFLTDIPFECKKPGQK

B1: GM-CSF: murine recombinant GM-CSF, Peprotech (protein, UniProt P01587 18-141, looked up)
Granulocyte-macrophage …: T1 sequence (P01587 18-141)
B2: sGMRa: GM-CSF receptor alpha (sGMRa), a soluble factor that binds GM-CSF (protein, UniProt P15509 23-320, looked up)
extracellular domain: EKSDLRTVAPASSLNVRFDSRTMNLSWDCQENTTFSKCFLTDKKNRVVEPRLSNNECSCTFREICLHEGVTFEVHVNTSQRGFQQKLLYPNSGREGTAAQNFSCFIYNADLMNCTWARGPTAPRDVQYFLYIRNSKRRREIRCPYYIQDSGTHVGCHLDNLSGLTSRNYFLVNGTSREIGIQFFDSLLDTKKIERFNPPSNVTVRCNTTHCLVRWKQPRTYQKLSYLDFQYQLDVHRKNTQPGTENLLINVSGDLENRYNFPSSEPRAKHSVKIRAADVRILNWSSWSEAIEFGSDDG
modifications: extracellular domain

Columns and labels:
[1] = tested on: maturing oligodendrocytes; assay: dying maturing oligodendrocytes (GalC+, TUNEL+ cells); format: cell-based, mouse; details: 1, 3 or 5 days in differentiation media, FIG. 2
Description: The survival effects of GM-CSF on oligodendrocytes were examined with two lines of experiments. In the first line of experiments, neural stem cells were cultured as described in Example 1 in the presence or absence of GM-CSF or T3, and were fixed after 1, 3 or 5 days of culture in differentiation media. The fixed cells were immunostained for the maturing oligodendrocyte marker GalC and TUNEL, which is a marker of dying cells. The numbers of dicing, maturing oligodendrocytes (GalC+, TUNEL+cells) were then counted and their percentage in total GalC+cells are shown in FIG. 2.

[2] = tested on: differentiating neural stem cells; assay: Survival Assay: factor added or removed at different times, MBP staining; format: cell-based, mouse; design: MBP + cells after 5DIV: unit not given here; details: for dependence of oligodendrocyte numbers on length of time the factor is present: summary of Table 2, MBP after 5 DIV
Description: In the second line of experiments, GM-CSF ,as given to differentiating neural stem cells at different times. Thus, neural stem cell culture was placed in differentiation media as described in Example 1, and GM-CSF was added after 24 or 48 hours, or added in the beginning but removed after 24 or 48 hours. Similarly, T3 was added or removed in the same manner in parallel experiments. The cells were fixed after 5 days in vitro and immunostained with the mature oligodendrocyte marker MBP.

[3] = tested on: E14 ganglionic eminence cells; assay: total cell number of primary neural stem cell culture; format: cell-based, mouse; details: MHM plus EGF plus factor, 1 week, versus MHM plus EGF, FIG. 3
Description: To assess the effect of GM-CSF on proliferation of neural stem cells, the number of cells generated in neurosphere cultures, prepared according to Example 1, was counted when grown for 1 week in various culture media. Thus, E14 ganglionic eminence cells were grown at a density of 200,000 cells/ml in 40 ml of media for 1 week. The media were MHM plus EGF, MHM plus EGF and GM-CSF, or MHM plus EGF and T3. Spheres were then collected, dissociated and cells were counted with a hemacytometer. The cell numbers were calculated as percentages of the control (MHM plus EGF).

[4] = tested on: neural stem cells; assay: fate determination analysis (MBP+ and β-tubulin+ cells); format: cell-based, mouse; details: primary spheres generated in EGF plus factor, differentiated 5 days, FIG. 6
Description: To determine if the presence of GM-CSF during primary neurosphere formation impacts fate determination of neural stem cells, primary neurospheres were generated in either EGF alone, EGF plus GM-CSF, or EGF plus T3 as described in Example 3. The primary spheres were then dissociated and plated on poly-L-ornithine coated coverslips in 24-well plates at a density of 200,000 cells/well in 1 ml of MHM per well, and allowed to differentiate for 5 days. At the end the differentiation period, the cells were fixed with 4% paraformaldehyde and immunostained for the mature oligodendrocyte marker MBP, the neuronal marker β-tubulin, and Hoechst. The total number of live cells, evidenced by Hoechst stain, were counted as well as the immunostained cells.

[5] = tested on: EGF-responsive neural stem cells; assay: secondary neurosphere numbers (self-expansion); format: cell-based, mouse; details: FIG. 5; for number of secondary neurospheres: factor in secondary neurosphere media, primary spheres grown in EGF; for formation of secondary spheres: factor included in the media for primary neurospheres
Description: Furthermore, the effect of GM-CSF on self-expansion, proliferation of secondary neurospheres derived from primary neurospheres, was also assessed. Three media were used in the preparation of primary spheres: MHM plus EGF, MHM plus EGF plus GM-CSF and MHM plus EGF plus T3. The primary, spheres were dissociated, plated in 96-well plates at a concentration of 1000 cells/well in 200μL media per well, and allowed to form secondary neurospheres for a week. The media for secondary cultures consisted of MHM plus EGF alone, MHM plus GM-CSF or T3 alone, or MHM plus EGF supplemented with GM-CSF or T3. The number of secondary spheres in each well was then counted, calculated as percentage of control (EGF to EGF).

[6] = tested on: neural stem cells; assay: rapid differentiation protocol of neural stem cells, immunostaining for O4, GalC and MBP; format: cell-based, mouse; details: for % positive cells, GalC / % positive cells, MBP / % positive cells, O4: 20 ng/ml factor in MHM
Description: To determine the effect of GM-CSF on neural stem cell differentiation, a culture of neural stein cells was prepared from mouse embryos and subjected to a rapid differentiation protocol. Embryonic Day 14 (E14) mouse ganglionic eminence was dissected and grown in media hormone mix (MHM) plus 20 ng/ml epidermal growth factor (EGF) for one week to generate primary neurospheres. The composition of MHM was as follows: • DMEM/F12 (1:1) • glucose (0.6%) • glutamine (2 mM) • sodium bicarbonate ([…]) • HEPES (5 mM) • insulin (25 μg/ml • transferrin (100 μg/ml) • progesterone (20 nM) • putrescine (60 μM) • selenium chloride (30 nM)
Primary neurospheres were then dissociated and plated on poly-L-ornithine coated coverslips in 24-well plates at a density of 200,000 cells/ml in 1 ml of MHM per well. Cells were allowed to differentiate in the absence or presence of 20 ng/ml GM-CSF (murine recombinant GM-CSF, Peprotech) in MHM or 20 ng/ml of triiodothyronine (T3, Sigma) in MHM, or in a combination of both GM-CSF and T3. T3 is a known oligodendrocyte differentiation factor, which was used to compare GM-CSF in these experiments.
After 1, 3 or 5 days, the cells were fixed with 4% paraformaldehyde. […] After staining, the numbers of O4-positive, GalC-positive and MBP-positive cells were counted. The total number of cells were determined using Hoechst staining and live nuclei morphology under 40× magnification. This experiment was performed four times, and 10 non-overlapping fields per coverslip were counted each time. Statistical analyses of the results were performed using Anova with a Tukey-Honest post-hocs analysis.

[7] = tested on: E14 mouse ganglionic eminence cells; assay: primary neurosphere numbers; format: cell-based; details: MHM plus EGF plus factor, 20 ng/ml, 1 week, FIG. 4
Description: The effect of GM-CSF on primary neurosphere numbers was also examined by growing cells from E14 mouse ganglionic eminence in MHM plus EGF, MHM plus EGF plus GM-CSF, or MHM plus EGF plus T3, all at concentrations of 20 ng/ml. Thus, E14 mouse ganglionic eminence cells were dissociated and plated in 96well plates at a density of 10,000 cells/ml in 200 μl of media per well, and allowed to form primary neurospheres for a week. The number of primary spheres in each well as then counted and the aforementioned statistical analysis as performed.

[8] = McLay et al., 1997; cited from earlier work
[9] = target: T1, GM-CSF; assay: rapid differentiation protocol with GM-CSF with or without soluble GM-CSF receptor alpha; format: cell-based; details: 100-fold excess of sGMRa, 5 days in vitro, FIG. 1
Description: A rapid differentiation protocol was performed, as described above, in the absence or presence of GM-CSF, with or without a 100-fold excess of sGMRa. After 5 days in vitro, the cells were fixed, immunostained with the mature oligodendrocyte marker MBP and counted as previously described.

[10] = immature oligodendrocyte marker O4, 1 DIV
[11] = mature oligodendrocyte marker MBP, 1 DIV
[12] = maturing oligodendrocyte marker GalC, 1 DIV

| Molecule | number of dying GalC+ cells (GalC+, TUNEL+ in total GalC+ cells) [1] | MBP + cells after 5DIV ([2]; factor added after 24 hours) | MBP + cells after 5DIV ([2]; factor added after 48 hours) | MBP + cells after 5DIV ([2]; factor present for 5 DIV) | MBP + cells after 5DIV ([2]; factor removed after 24 hours) | MBP + cells after 5DIV ([2]; factor removed after 48 hours) | dependence of oligodendrocyte numbers on length of time the factor is present [2] | total cell number in the neural stem cell culture [3] | number of mature oligodendrocytes (MBP+ cells) [4] | number of neurons (β-tubulin+ cells) [4] | number of secondary neurospheres [5] | formation of secondary spheres [5] | % positive cells, GalC ([6]; GalC, 3 DIV) | % positive cells, GalC ([6]; GalC, 5 DIV) | % positive cells, MBP ([6]; MBP, 3 DIV) | % positive cells, MBP ([6]; MBP, 5 DIV) | % positive cells, O4 ([6]; O4, 3 DIV) | % positive cells, O4 ([6]; O4, 5 DIV) | % positive cells, O4 [6, 10] | % positive cells, MBP [6, 11] | further results |
| --- | --- | --- | --- | --- | --- | --- | --- | --- | --- | --- | --- | --- | --- | --- | --- | --- | --- | --- | --- | --- | --- |
| N[C@@H](Cc1cc(I)c(Oc2ccc(O)c(I)c2)c(I)c1)C(=O)O [T3, triiodothyronine, reference compound] | only minor survival effects, if any | 14.8 ± 1.5 | 12.0 ± 1.1 | 13.9 ± 1.1 | 15.5 ± 1.1 | 13.8 ± 1.1 | did not chance regardless of the length of time | reduces | increased | decreased | decreased | detrimental | 15.3 ± 1.5 % | 11.1 ± 0.9 % | 13.9 ± 1.1 % | 17.2 ± 1.6 % | 35.9 ± 1.7 % | 19.9 ± 1.5 % | 18.2 ± 1.2 % | 1.6 ± 0.4% | % positive cells, GalC [6, 12]: 8.0 ± 0.8 %; ability of neural stem cells to form primary neurospheres [7]: neither GM-CSF nor T3 have significant effects |
| B1 | significantly reduced | 8.1 ± 0.9 | 3.9 ± 0.6 | 8.0 ± 0.8 | 5.4 ± 1.0 | 9.7 ± 1.0 | required for an extended period of time | slightly increased | increased | decreased | does not significantly affect | detrimental | 7.4 ± 0.8% | 7.9 ± 1.0 % | 8.1 ± 0.9 % | 12.2 ± 1.3 % | 25.7 ± 1.5% | 9.6 ± 1.0% | 16.6 ± 1.2 % | 1.2 ± 0.3% | crossing the blood-brain barrier [8]: capable of crossing the blood-brain barrier; percentage of oligodendrocytes produced from neural stem cells ([6]; every stage of oligodendrocyte development, versus control): significantly increased; also recorded: increased by several folds; % positive cells, GalC [6, 12]: 4.1 ± 0.6%; ability of neural stem cells to form primary neurospheres [7]: neither GM-CSF nor T3 have significant effects |
| B2 | – | – | – | – | – | – | – | – | – | – | – | – | – | – | – | – | – | – | – | – | effect of GM-CSF on MBP+ cells [9]: specifically inhibited |

Source: patent US7704737B2, “Oligodendrocyte production from multipotent neural stem cells” (Stem Cell Therapeutics Inc., priority 2002, dated 2010)
